Assay results taken from the supplement of paper PMC9112550, “Optimization of the antimicrobial peptide Bac7 by deep mutational scanning” (BMC Biology, 2022).

test system: Escherichia coli TOP10; assay: shrunken log2 fold change of peptide-encoding DNA abundance (4.5 h post-induction vs induction); higher = less antimicrobial activity (less host growth inhibition); details: time post-induction: 4.5 h; library: site-saturation at positions 5, 18, 19, 20
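Note: peptides expressed intracellularly from a pBAD plasmid library in pooled LB shake-flask culture, induced with 0.3% L-arabinose, DNA abundance read by NGS, three biological replicates, DESeq2 with apeglm shrinkage.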

Row | Sequence | shrunken log2 fold change
1 | RRIRHRPPRLPRPRPRPFMVPRP | -0.43
2 | RRIRHRPPRLPRPRPRPFMYPRP | -0.249
3 | RRIRHRPPRLPRPRPRPFNIPRP | 0.0518
4 | RRIRHRPPRLPRPRPRPFNYPRP | 0.0485
5 | RRIRHRPPRLPRPRPRPFPPPRP | -0.228
6 | RRIRHRPPRLPRPRPRPFRAPRP | -0.211
7 | RRIRHRPPRLPRPRPRPFSNPRP | -1.09
8 | RRIRHRPPRLPRPRPRPFSSPRP | 0.107
9 | RRIRHRPPRLPRPRPRPFSYPRP | -0.28
10 | RRIRHRPPRLPRPRPRPFTAPRP | -0.559
11 | RRIRHRPPRLPRPRPRPFTKPRP | 0.009
12 | RRIRHRPPRLPRPRPRPFTPPRP | -0.484
13 | RRIRHRPPRLPRPRPRPFVEPRP | -0.45
14 | RRIRHRPPRLPRPRPRPFWCPRP | -0.3
15 | RRIRHRPPRLPRPRPRPGAGPRP | 0.395
16 | RRIRHRPPRLPRPRPRPGANPRP | -0.0811
17 | RRIRHRPPRLPRPRPRPGCYPRP | 0.0554
18 | RRIRHRPPRLPRPRPRPGDAPRP | 0.0297
19 | RRIRHRPPRLPRPRPRPGDRPRP | 2.17
20 | RRIRHRPPRLPRPRPRPGEQPRP | 0.0974
21 | RRIRHRPPRLPRPRPRPGGCPRP | 0.165
22 | RRIRHRPPRLPRPRPRPGHGPRP | 0.0264
23 | RRIRHRPPRLPRPRPRPGHHPRP | -0.132
24 | RRIRHRPPRLPRPRPRPGHNPRP | -0.166
25 | RRIRHRPPRLPRPRPRPGLTPRP | 0.129

Row | Sequence | shrunken log2 fold change
26 | RRIRHRPPRLPRPRPRPGMCPRP | -0.493
27 | RRIRHRPPRLPRPRPRPGPAPRP | 0.871
28 | RRIRHRPPRLPRPRPRPGPTPRP | 0.146
29 | RRIRHRPPRLPRPRPRPGQEPRP | -0.00664
30 | RRIRHRPPRLPRPRPRPGQNPRP | -0.226
31 | RRIRHRPPRLPRPRPRPGRAPRP | 0.49
32 | RRIRHRPPRLPRPRPRPGRPPRP | 0.616
33 | RRIRHRPPRLPRPRPRPGSAPRP | 0.323
34 | RRIRHRPPRLPRPRPRPGSMPRP | -0.099
35 | RRIRHRPPRLPRPRPRPGWCPRP | 0.399
36 | RRIRHRPPRLPRPRPRPGWSPRP | 0.0123
37 | RRIRHRPPRLPRPRPRPGYLPRP | -0.243
38 | RRIRHRPPRLPRPRPRPGYRPRP | -0.00177
39 | RRIRHRPPRLPRPRPRPGYVPRP | -0.211
40 | RRIRHRPPRLPRPRPRPHAKPRP | -0.00884
41 | RRIRHRPPRLPRPRPRPHCFPRP | -0.312
42 | RRIRHRPPRLPRPRPRPHFCPRP | -0.0593
43 | RRIRHRPPRLPRPRPRPHIYPRP | -0.169
44 | RRIRHRPPRLPRPRPRPHLFPRP | -0.154
45 | RRIRHRPPRLPRPRPRPHNPPRP | -0.216
46 | RRIRHRPPRLPRPRPRPHNSPRP | -0.692
47 | RRIRHRPPRLPRPRPRPHQGPRP | -0.00197
48 | RRIRHRPPRLPRPRPRPHQIPRP | 0.0658
49 | RRIRHRPPRLPRPRPRPHRMPRP | -0.46
50 | RRIRHRPPRLPRPRPRPHSWPRP | -0.0723

Row | Sequence | shrunken log2 fold change
51 | RRIRHRPPRLPRPRPRPHVEPRP | -0.0794
52 | RRIRHRPPRLPRPRPRPHWDPRP | -0.557
53 | RRIRHRPPRLPRPRPRPHWKPRP | -0.337
54 | RRIRHRPPRLPRPRPRPIAEPRP | -0.103
55 | RRIRHRPPRLPRPRPRPIAMPRP | -0.119
56 | RRIRHRPPRLPRPRPRPIFGPRP | -0.0177
57 | RRIRHRPPRLPRPRPRPIFYPRP | -0.204
58 | RRIRHRPPRLPRPRPRPIHIPRP | -0.733
59 | RRIRHRPPRLPRPRPRPIKHPRP | -0.341
60 | RRIRHRPPRLPRPRPRPILDPRP | 0.0523
61 | RRIRHRPPRLPRPRPRPILEPRP | 0.077
62 | RRIRHRPPRLPRPRPRPILGPRP | -0.0179
63 | RRIRHRPPRLPRPRPRPILLPRP | -0.211
64 | RRIRHRPPRLPRPRPRPILVPRP | -0.148
65 | RRIRHRPPRLPRPRPRPIMMPRP | 0.013
66 | RRIRHRPPRLPRPRPRPINMPRP | -0.244
67 | RRIRHRPPRLPRPRPRPISDPRP | -0.179
68 | RRIRHRPPRLPRPRPRPIYKPRP | -0.393
69 | RRIRHRPPRLPRPRPRPKATPRP | 0.00379
70 | RRIRHRPPRLPRPRPRPKCLPRP | -0.25
71 | RRIRHRPPRLPRPRPRPKCYPRP | -0.0358
72 | RRIRHRPPRLPRPRPRPKDWPRP | 0.207
73 | RRIRHRPPRLPRPRPRPKHDPRP | -0.363
74 | RRIRHRPPRLPRPRPRPKKGPRP | -0.0679
75 | RRIRHRPPRLPRPRPRPKKWPRP | -0.0201
